The results in this text go back to PMC13090976 (Cell Stress & Chaperones, 2026).

The koff is the first-order rate constant of dissociation. For orientation: kon means the rate constant with which the complex forms.

B1: human CHIP-TPR (residues 21-154) [human] / biotin-… [modified: biotin, printed before the first residue (biotin-…); biotin, printed before the first residue (biotin-…)] [human] (parent)
chain 1: EKSPSAQELKEQGNRLFVGRKYPEAAACYGRAITRNPLVAVYYTNRALCYLKMQQHEQALADCRRALELDGQSVKAHFFLGQCQLEMESYDEAIANLQRAYSLAKEQRLNFGDDIPSALRIAKKKRWNSIEERR
chain 2: GSGSGPTIEEVD

In the test the parent is B1. The test can be described thus: biolayer interferometry. The conditions noted are these: with biotin-… [modified: biotin, read off a plot. (In general: Biolayer interferometry detects binding as a change in optical thickness at a sensor tip.)
As for chain 1 G112N, the koff turned out to be 0.0031 s⁻¹ and the kon came out at 5800 M⁻¹ s⁻¹.
